Source: PMC7910423

Molecular target: CMP-Pse5Ac7Ac synthetase PseF from Aeromonas caviae (Aeromonas caviae)
Assay: SEC-MALS; 100 uL of AcPseF at 4 mg/mL on a Superdex S200 column in 20 mM Tris pH 7.8, 50 mM NaCl, 2 mM MgCl2; Wyatt HELEOS-II light scattering and rEX refractive index detectors; BSA as standard

percent present as homodimer: > 99%
stoichiometry N: 2
Substance: CMP-Pse5Ac7Ac synthetase PseF from Aeromonas caviae (enzyme)
